Experiments:
[1] = biological target: PP1; assay: spinophilin IP, spectral counting by MS; settings: reference: intact (contralateral) striatum; sites S17,S100
[2] = biological target: HA-tagged spinophilin (human) (UniProt Q96SB3); assay: co-IP; HEK293 cells co-transfected with HA-spinophilin, V5-NF-M and kinase dead K72H myc-PKAc; low-ionic Tris buffer with 1% Triton X-100; HA or V5 immunoprecipitation, immunoblot
Chain of UniProt Q96SB3 (Q96SB3 whole entry): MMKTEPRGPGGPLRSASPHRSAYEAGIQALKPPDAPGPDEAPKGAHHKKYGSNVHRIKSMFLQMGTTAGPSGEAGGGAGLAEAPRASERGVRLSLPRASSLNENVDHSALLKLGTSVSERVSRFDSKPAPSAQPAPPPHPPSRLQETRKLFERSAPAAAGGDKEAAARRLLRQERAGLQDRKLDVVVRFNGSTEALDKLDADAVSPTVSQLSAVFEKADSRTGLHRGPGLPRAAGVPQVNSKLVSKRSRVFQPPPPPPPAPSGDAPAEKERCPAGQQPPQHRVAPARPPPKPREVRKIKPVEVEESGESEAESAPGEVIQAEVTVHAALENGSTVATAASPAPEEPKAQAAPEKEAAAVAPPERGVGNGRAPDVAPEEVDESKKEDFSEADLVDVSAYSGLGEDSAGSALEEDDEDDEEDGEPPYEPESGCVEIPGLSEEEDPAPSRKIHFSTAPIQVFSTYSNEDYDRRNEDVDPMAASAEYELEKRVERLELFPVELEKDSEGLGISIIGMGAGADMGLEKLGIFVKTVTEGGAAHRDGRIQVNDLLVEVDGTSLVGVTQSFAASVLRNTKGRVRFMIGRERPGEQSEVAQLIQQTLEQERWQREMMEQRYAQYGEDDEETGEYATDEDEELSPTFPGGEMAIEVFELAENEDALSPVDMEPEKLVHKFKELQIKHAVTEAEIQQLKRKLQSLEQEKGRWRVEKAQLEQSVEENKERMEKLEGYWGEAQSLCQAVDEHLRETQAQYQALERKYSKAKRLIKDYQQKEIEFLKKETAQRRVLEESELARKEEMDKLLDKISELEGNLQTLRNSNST

Chain of spinophilin (Q6R891 whole entry, looked up, stated change not applied): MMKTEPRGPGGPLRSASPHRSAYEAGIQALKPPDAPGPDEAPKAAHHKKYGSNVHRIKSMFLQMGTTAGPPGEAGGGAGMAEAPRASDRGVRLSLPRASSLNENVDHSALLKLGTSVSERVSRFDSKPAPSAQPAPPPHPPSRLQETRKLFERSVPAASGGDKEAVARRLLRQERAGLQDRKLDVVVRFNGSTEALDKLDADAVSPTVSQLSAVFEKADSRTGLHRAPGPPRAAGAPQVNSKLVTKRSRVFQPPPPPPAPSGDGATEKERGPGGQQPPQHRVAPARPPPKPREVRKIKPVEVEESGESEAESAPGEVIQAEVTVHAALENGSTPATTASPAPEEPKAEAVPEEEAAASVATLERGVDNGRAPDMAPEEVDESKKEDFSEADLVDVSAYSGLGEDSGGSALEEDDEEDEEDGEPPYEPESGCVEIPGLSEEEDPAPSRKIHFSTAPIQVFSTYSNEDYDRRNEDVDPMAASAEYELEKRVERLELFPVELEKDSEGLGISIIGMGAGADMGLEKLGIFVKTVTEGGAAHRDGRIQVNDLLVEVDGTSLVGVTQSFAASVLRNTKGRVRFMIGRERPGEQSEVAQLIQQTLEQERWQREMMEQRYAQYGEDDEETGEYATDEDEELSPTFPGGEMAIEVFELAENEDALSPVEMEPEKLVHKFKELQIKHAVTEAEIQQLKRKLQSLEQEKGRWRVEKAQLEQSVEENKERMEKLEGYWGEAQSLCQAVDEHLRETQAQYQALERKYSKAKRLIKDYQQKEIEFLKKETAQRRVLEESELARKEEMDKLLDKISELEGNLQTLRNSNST

Row | Substance | other: percent increase over reference [1] [%] | percent reduction of the association against wild type PKAc [2] [%]
1 | spinophilin (from UniProt Q6R891) 6-OHDA-lesioned (ipsilateral) striatum | 28 | 
2 | kinase dead (K72H mutant) myc-tagged PKAc (enzyme) |  | 63
